Target: PCSK9-V5 (Homo sapiens, UniProt Q8NBP7)
Assay: Far Western blot with PCSK9-V5 conditioned media
Format: binding
Design: made in house; host or cells: CHO-K1 cells (conditioned medium, not purified)
Settings: lysates of cells overexpressing the construct
Procedure: Lysates (20 to 30 μg protein), media or purified AnxA2-(His)6 were heated in reducing or non-reducing Laemmli sample buffer, resolved by SDS-PAGE on 8% glycine gels and electro-transferred onto nitrocellulose membranes (GE Healthcare). Following 1 h incubation in 5% skim milk in Tris-Buffered Saline-0.1% Tween (TBST), membranes where incubated with conditioned media of CHO-K1 cells overexpressing either an empty vector (pIRES-V5), PC5A-V5, CHRD-V5, pIRES-D374Y, PCSK9-V5 or its V5-tagged mutants, or incubated with purified AnxA2-(His)6 for 3 h at room temperature. […] For competition experiments, 10 μg of His-tagged PCSK9 or CHRD were added to the PCSK9-V5 media before Far Western blotting. For PCSK9 binding requirements with the ˜33 kDa protein, 1M NaCl, 10 mg/ml heparin, 1M NaCl+10 mg/ml heparin, or 100 mM EDTA were added to the PCSK9-V5 conditioned media used for Far Western blotting.
Wild type human Annexin A2 (AnxA2) (ATCC #MGC-2257) and Annexin A1 (AnxA1) (ATCC #MGC-5095) were purchased from ATCC and subcloned into NheI/SacI digested pIRES2-EGFP vector. An HA epitope ([…]) was fused by PCR mutagenesis at the C-terminus of both AnxA1 and AnxA2. Two-steps PCRs were performed on AnxA2 cDNA to introduce point mutations (N62Q; S64A; K28S+D34N+E36S; R37S+E43H+K47M; 77RRTKK (SEQ ID NO: 26)>AATAK (SEQ ID NO: 27); ^77RRTKK (SEQ ID NO: 26)>AATAA (SEQ ID NO: 28); ^77RRTKKELASALK (SEQ ID NO: 29)>^77AATAAELASALA (SEQ ID NO: 30); 80KKELA (SEQ ID NO: 31)>GKPLD (SEQ ID NO: 32)), or amino acid (aa) deletions (Δ2-24, aa 2-24; ΔR1, aa 37-108; ΔR2, aa 109-192; ΔR3, aa 193-268; ΔR4, aa 269-339; Δ25-36, aa 25-36; Δ37-48, aa 37-48; Δ49-61, aa 49-61; Δ62-75, aa 62-75; Δ37-66, aa 37-66; Δ74-88, aa 74-88; Δ82-88, aa 82-88; Δ89-101, aa 89-101; Δ102-108, aa 102-108) into pIRES2-AnxA2-EGFP vector (see Table 3 above). In addition, using PCR, the AnxA2 segment aa 49-75 was swapped with the corresponding AnxA1 segment aa 58-84 [AnxA1 (aa 58-84)>AnxA2 (aa 49-75)]. Similar swaps were performed for the corresponding AnxA2 sequence with AnxA1 (AnxA1>AnxA2: aa 25-27; aa 28-30; aa 31-33; aa 34-36; aa 37-39; aa 40-42; aa 43-45; aa 46-48; aa 49-75; aa 49-61; aa 62-75). All final cDNA constructs were verified by DNA sequencing.

PCSK9-V5, sequence (Q8NBP7 153-692): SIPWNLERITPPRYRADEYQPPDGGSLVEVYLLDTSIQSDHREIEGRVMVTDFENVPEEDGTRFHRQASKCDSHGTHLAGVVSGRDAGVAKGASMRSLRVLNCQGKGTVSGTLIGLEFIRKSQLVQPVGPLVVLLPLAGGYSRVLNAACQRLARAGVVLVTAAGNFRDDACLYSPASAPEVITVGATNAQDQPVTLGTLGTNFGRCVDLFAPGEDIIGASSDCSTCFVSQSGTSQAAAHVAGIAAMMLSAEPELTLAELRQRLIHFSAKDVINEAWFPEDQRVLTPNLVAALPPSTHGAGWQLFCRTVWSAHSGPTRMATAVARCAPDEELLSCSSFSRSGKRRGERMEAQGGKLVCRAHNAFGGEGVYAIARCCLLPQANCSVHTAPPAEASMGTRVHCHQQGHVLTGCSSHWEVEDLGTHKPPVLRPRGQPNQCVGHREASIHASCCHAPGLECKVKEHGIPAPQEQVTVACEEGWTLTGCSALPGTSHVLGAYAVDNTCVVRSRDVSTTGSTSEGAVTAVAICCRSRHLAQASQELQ
PCSK9-V5, sequence (Q8NBP7 31-152 partner limits assumed): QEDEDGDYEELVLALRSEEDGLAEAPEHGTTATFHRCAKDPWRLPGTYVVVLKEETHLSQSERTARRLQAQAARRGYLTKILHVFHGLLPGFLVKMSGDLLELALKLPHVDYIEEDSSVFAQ

Row | Molecule | PCSK9-V5 binding by Far Western blot
1 | 77AATAA81: AnxA2 point mutant 77RRTKK81 to AATAA (protein) MSTVHEILCKLSLEGDHSTPPSAYGSVKAYTNFDAERDALNIETAIKTKGVDEVTIVNILTNRSNAQRQDIAFAYQAATAAELASALKSALSGHLETVILGLLKTPAQYDASELKASMKGLGTDEDSLIEIICSRTNQELQEINRVYKEMYKTDLEKDIISDTSGDFRKLMVALAKGRRAEDGSVIDYELIDQDARDLYDAGVKRKGTDVPKWISIMTERSVPHLQKVFDRYKSYSPYDMLESIRKEVKGDLENAFLNLVQCIQNKPLYFADRLYDSMKGKGTRDKVLIRIMVSRSEVDMLKIRSEFKRKYGKSLYYYIQQDTKGDYQKALLYLCGGDDYPYDVPDYA | is critical for the AnxA2-PCSK9 binding
2 | 77AATAAELASALA88: AnxA2 point mutant 77…88 to AATAAELASALA (protein, AnxA2 point mutant 77…88 to …) MSTVHEILCKLSLEGDHSTPPSAYGSVKAYTNFDAERDALNIETAIKTKGVDEVTIVNILTNRSNAQRQDIAFAYQAATAAELASALASALSGHLETVILGLLKTPAQYDASELKASMKGLGTDEDSLIEIICSRTNQELQEINRVYKEMYKTDLEKDIISDTSGDFRKLMVALAKGRRAEDGSVIDYELIDQDARDLYDAGVKRKGTDVPKWISIMTERSVPHLQKVFDRYKSYSPYDMLESIRKEVKGDLENAFLNLVQCIQNKPLYFADRLYDSMKGKGTRDKVLIRIMVSRSEVDMLKIRSEFKRKYGKSLYYYIQQDTKGDYQKALLYLCGGDDYPYDVPDYA | abolished binding of AnxA2 to PCSK9
3 | K28S+D34N+E36S: AnxA2 with Lys28, Asp34, Glu36 replaced by AnxA1 Ser, Asn, Ser (protein) MSTVHEILCKLSLEGDHSTPPSAYGSVSAYTNFNASRDALNIETAIKTKGVDEVTIVNILTNRSNAQRQDIAFAYQRRTKKELASALKSALSGHLETVILGLLKTPAQYDASELKASMKGLGTDEDSLIEIICSRTNQELQEINRVYKEMYKTDLEKDIISDTSGDFRKLMVALAKGRRAEDGSVIDYELIDQDARDLYDAGVKRKGTDVPKWISIMTERSVPHLQKVFDRYKSYSPYDMLESIRKEVKGDLENAFLNLVQCIQNKPLYFADRLYDSMKGKGTRDKVLIRIMVSRSEVDMLKIRSEFKRKYGKSLYYYIQQDTKGDYQKALLYLCGGDD | slightly reduced the ability of PCSK9 to bind AnxA2
4 | R37S+E43H+K47M: AnxA2 with Arg37, Glu43, Lys47 replaced by AnxA1 Ser, His, Met (protein) MSTVHEILCKLSLEGDHSTPPSAYGSVKAYTNFDAESDALNIHTAIMTKGVDEVTIVNILTNRSNAQRQDIAFAYQRRTKKELASALKSALSGHLETVILGLLKTPAQYDASELKASMKGLGTDEDSLIEIICSRTNQELQEINRVYKEMYKTDLEKDIISDTSGDFRKLMVALAKGRRAEDGSVIDYELIDQDARDLYDAGVKRKGTDVPKWISIMTERSVPHLQKVFDRYKSYSPYDMLESIRKEVKGDLENAFLNLVQCIQNKPLYFADRLYDSMKGKGTRDKVLIRIMVSRSEVDMLKIRSEFKRKYGKSLYYYIQQDTKGDYQKALLYLCGGDD | significant decrease of binding
5 | 80KKELA>GKPLD: AnxA2 with 80KKELA84 replaced by AnxA1 loop sequence 89GKPLD93 (protein, UniProt P07355 2-339, looked up, variant K80G E82P A84D) Annexin A2: STVHEILCKLSLEGDHSTPPSAYGSVKAYTNFDAERDALNIETAIKTKGVDEVTIVNILTNRSNAQRQDIAFAYQRRTGKPLDSALKSALSGHLETVILGLLKTPAQYDASELKASMKGLGTDEDSLIEIICSRTNQELQEINRVYKEMYKTDLEKDIISDTSGDFRKLMVALAKGRRAEDGSVIDYELIDQDARDLYDAGVKRKGTDVPKWISIMTERSVPHLQKVFDRYKSYSPYDMLESIRKEVKGDLENAFLNLVQCIQNKPLYFADRLYDSMKGKGTRDKVLIRIMVSRSEVDMLKIRSEFKRKYGKSLYYYIQQDTKGDYQKALLYLCGGDD | had no appreciable effect on PCSK9 binding

The next lines start with the values.

Row | PCSK9-V5 binding by Far Western blot | Molecule
6 | abolished PCSK9 binding | Δ25-36: AnxA2 deletion of aa 25-36 (protein) MSTVHEILCKLSLEGDHSTPPSAYRDALNIETAIKTKGVDEVTIVNILTNRSNAQRQDIAFAYQRRTKKELASALKSALSGHLETVILGLLKTPAQYDASELKASMKGLGTDEDSLIEIICSRTNQELQEINRVYKEMYKTDLEKDIISDTSGDFRKLMVALAKGRRAEDGSVIDYELIDQDARDLYDAGVKRKGTDVPKWISIMTERSVPHLQKVFDRYKSYSPYDMLESIRKEVKGDLENAFLNLVQCIQNKPLYFADRLYDSMKGKGTRDKVLIRIMVSRSEVDMLKIRSEFKRKYGKSLYYYIQQDTKGDYQKALLYLCGGDDYPYDVPDYA
7 | abolished | SW49-75: AnxA2 segment aa 49-75 swapped with AnxA1 aa 58-84 (protein) MSTVHEILCKLSLEGDHSTPPSAYGSVKAYTNFDAERDALNIETAIKTKGVDEATIIDILTKRNNAQRQQIKAAYQRRTKKELASALKSALSGHLETVILGLLKTPAQYDASELKASMKGLGTDEDSLIEIICSRTNQELQEINRVYKEMYKTDLEKDIISDTSGDFRKLMVALAKGRRAEDGSVIDYELIDQDARDLYDAGVKRKGTDVPKWISIMTERSVPHLQKVFDRYKSYSPYDMLESIRKEVKGDLENAFLNLVQCIQNKPLYFADRLYDSMKGKGTRDKVLIRIMVSRSEVDMLKIRSEFKRKYGKSLYYYIQQDTKGDYQKALLYLCGGDDYPYDVPDYA
8 | is critical for the AnxA2-PCSK9 binding | ^77AATAK^81: AnxA2 point mutant 77RRTKK81 to AATAK (protein) MSTVHEILCKLSLEGDHSTPPSAYGSVKAYTNFDAERDALNIETAIKTKGVDEVTIVNILTNRSNAQRQDIAFAYQAATAKELASALKSALSGHLETVILGLLKTPAQYDASELKASMKGLGTDEDSLIEIICSRTNQELQEINRVYKEMYKTDLEKDIISDTSGDFRKLMVALAKGRRAEDGSVIDYELIDQDARDLYDAGVKRKGTDVPKWISIMTERSVPHLQKVFDRYKSYSPYDMLESIRKEVKGDLENAFLNLVQCIQNKPLYFADRLYDSMKGKGTRDKVLIRIMVSRSEVDMLKIRSEFKRKYGKSLYYYIQQDTKGDYQKALLYLCGGDDYPYDVPDYA
9 | abolished PCSK9 binding | Δ102-108: AnxA2 deletion of aa 102-108 (protein) MSTVHEILCKLSLEGDHSTPPSAYGSVKAYTNFDAERDALNIETAIKTKGVDEVTIVNILTNRSNAQRQDIAFAYQRRTKKELASALKSALSGHLETVILGYDASELKASMKGLGTDEDSLIEIICSRTNQELQEINRVYKEMYKTDLEKDIISDTSGDFRKLMVALAKGRRAEDGSVIDYELIDQDARDLYDAGVKRKGTDVPKWISIMTERSVPHLQKVFDRYKSYSPYDMLESIRKEVKGDLENAFLNLVQCIQNKPLYFADRLYDSMKGKGTRDKVLIRIMVSRSEVDMLKIRSEFKRKYGKSLYYYIQQDTKGDYQKALLYLCGGDDYPYDVPDYA

Source: patent US8673850B2, “PCSK9 inhibitors and methods of use thereof” (Institut de Recherches Cliniques de Montreal, priority 2008, dated 2014)
